# Assays:
# [1] = molecular target: B. subtilis S72N TRAP (trp RNA-binding attenuation protein, S72N mutant) (B. subtilis) (UniProt P19466); test: native MS; nanoflow electrospray of purified S72N TRAP picked by SEC (elution volume less than 14.5 ml); methods in Text S1
# [2] = molecular target: B. subtilis S72N TRAP (trp RNA-binding attenuation protein, S72N mutant) (B. subtilis) (UniProt P19466); test: crystal structure; hanging drop vapor diffusion at 18°C; protein in 10 mM triethanolamine pH 8.0, 100 mM NaCl, 15 mM L-tryptophan, 33.5 mg/ml; six subunits in the asymmetric unit, 12-mer generated by the crystallographic 2-fold axis of P2(1)2(1)2
substance,measurement,setting,value
"B. subtilis S72N TRAP (trp RNA-binding attenuation protein, S72N mutant) (from UniProt P19466 1-71) (natural protein)",stoichiometry N,[1],12
same,stoichiometry N,[2],12

# Reference: publication PMC3435397
